Data from patent US20170247434A1 (DEUTSCHES KREBSFORSCHUNGSZENTRUM, published 2017).

Columns and labels:
[1] = target: T1, Norovirus GII.10 Vietnam026 virus-like particles (VLPs) (Norovirus GII.10 Vietnam026)
T1 chain: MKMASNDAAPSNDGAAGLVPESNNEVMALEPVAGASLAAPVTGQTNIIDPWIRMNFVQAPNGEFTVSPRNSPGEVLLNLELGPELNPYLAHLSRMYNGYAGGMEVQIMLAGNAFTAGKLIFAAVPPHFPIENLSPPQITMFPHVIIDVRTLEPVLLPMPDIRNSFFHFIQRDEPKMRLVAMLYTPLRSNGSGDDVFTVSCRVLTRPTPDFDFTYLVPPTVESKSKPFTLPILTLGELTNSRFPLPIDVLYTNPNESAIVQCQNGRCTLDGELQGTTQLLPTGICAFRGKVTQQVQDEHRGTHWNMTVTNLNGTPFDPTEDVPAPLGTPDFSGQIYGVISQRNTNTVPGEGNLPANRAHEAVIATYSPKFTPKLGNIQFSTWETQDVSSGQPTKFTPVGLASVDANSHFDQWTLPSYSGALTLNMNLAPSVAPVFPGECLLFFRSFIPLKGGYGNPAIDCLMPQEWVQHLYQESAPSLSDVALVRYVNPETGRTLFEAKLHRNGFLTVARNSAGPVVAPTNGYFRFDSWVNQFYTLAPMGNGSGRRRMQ

[2] = target: T2, Norovirus GII.4 NSW-2012 virus-like particles (VLPs) (Norovirus GII.4 NSW-2012, UniProt P54635 1-538)
T2 chain: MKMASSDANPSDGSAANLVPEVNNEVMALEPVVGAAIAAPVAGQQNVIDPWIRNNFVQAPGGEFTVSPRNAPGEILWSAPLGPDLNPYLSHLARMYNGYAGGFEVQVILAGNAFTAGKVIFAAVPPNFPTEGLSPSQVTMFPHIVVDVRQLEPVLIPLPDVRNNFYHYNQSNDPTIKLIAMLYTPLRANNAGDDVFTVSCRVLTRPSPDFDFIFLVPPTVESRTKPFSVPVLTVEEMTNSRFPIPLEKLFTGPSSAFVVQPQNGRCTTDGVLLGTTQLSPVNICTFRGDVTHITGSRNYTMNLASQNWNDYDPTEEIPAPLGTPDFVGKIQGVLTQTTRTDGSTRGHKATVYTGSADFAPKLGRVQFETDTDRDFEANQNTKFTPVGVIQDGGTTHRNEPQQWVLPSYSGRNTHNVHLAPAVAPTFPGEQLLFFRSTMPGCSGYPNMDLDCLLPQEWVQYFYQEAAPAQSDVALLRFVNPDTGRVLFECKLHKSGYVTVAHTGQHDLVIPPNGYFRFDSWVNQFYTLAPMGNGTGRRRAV

[3] = target: T3, Norovirus GI.1 Norwalk virus virus-like particles (VLPs) (Norovirus GI.1 Norwalk virus, UniProt Q83884 1-530); test: direct ELISA; plates coated with VLPs; His-tagged nanobody serially diluted from ˜10 µM; anti-His HRP
T3 construct: also called GI.1 VLPs; the member of genogroup I included in this study
T3 sequence: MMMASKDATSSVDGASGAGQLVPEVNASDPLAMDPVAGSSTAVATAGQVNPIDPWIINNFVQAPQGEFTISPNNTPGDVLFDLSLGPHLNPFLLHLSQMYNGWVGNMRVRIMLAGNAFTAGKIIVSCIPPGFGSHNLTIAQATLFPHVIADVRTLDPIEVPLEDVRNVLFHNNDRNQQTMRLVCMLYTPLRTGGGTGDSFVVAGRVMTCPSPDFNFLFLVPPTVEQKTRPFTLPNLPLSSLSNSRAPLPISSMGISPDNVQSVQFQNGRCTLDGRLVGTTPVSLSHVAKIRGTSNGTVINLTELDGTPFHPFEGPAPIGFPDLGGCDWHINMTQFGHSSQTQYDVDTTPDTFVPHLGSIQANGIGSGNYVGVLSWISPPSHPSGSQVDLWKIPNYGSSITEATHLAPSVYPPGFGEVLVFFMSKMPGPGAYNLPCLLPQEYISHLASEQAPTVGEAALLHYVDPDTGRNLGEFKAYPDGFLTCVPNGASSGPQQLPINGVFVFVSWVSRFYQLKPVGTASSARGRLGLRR

[4] = target: T2, Norovirus GII.4 NSW-2012 virus-like …; test: direct ELISA; plates coated with 2 µg/ml VLPs; His-tagged nanobody serially diluted from ˜10 µM; anti-His HRP
[5] = target: T4, Norovirus GII.12 Hiro virus-like particles (VLPs) (Norovirus GII.12 Hiro); test: as above
T4 construct: also called GII.12 VLPs

[6] = target: T5, P domain of norovirus GII.10 (Vietnam026) (Norovirus GII.10 Vietnam026); test: direct ELISA; plates coated with 7 µg/ml GII.10 P domain; His-tagged nanobody serially diluted from ˜10 µM; anti-His HRP
T5 construct: domain: P domain; also called GII.10 P domain; GII.10 P domains

[7] = target: T1, Norovirus GII.10 Vietnam026 virus-like …; test: direct ELISA; plates coated with 2 µg/ml VLPs; His-tagged nanobody serially diluted from ˜10 µM; anti-His HRP; detection limit OD 0.15

B1: Nano-85 (VHH)
VHH: DVQLVESGGGLVQPGGSLRLSCAASGSIFSIYAMGWYRQAPGKQRELVASISSGGGTNYADSVKGRFTISGDNAKNTVYLQMNSLKPEDTAVYYCKREDYSAYAPPSGSRGRGTQVTVSS
notes: also called the Nanobody; single-domain antibody (VHH) of the invention
IC50 [1]: < 10 µg/mL
IC50 [2]: < 10 µg/mL
dilution at which VLPs were detected [3]: 4000 fold dilution
dilution at which VLPs were detected [4]: 32000 fold dilution
dilution at which VLPs were detected [5]: 32000 fold dilution
dilution at which P domains were detected [6]: 17800 fold dilution
dilution at which VLPs were detected [7]: 64000 fold dilution
